Data set [1] addresses Collinsella aerofaciens 7β-HSDH mutant [T17F] (Collinsella aerofaciens, UniProt A4ECA9, T17F). The data set is classed as biochemical. The note with it: in comparison with the wild type.
For data set [2], the target named is 7β-HSDH obtainable from Collinsella aerofaciens DSM 3979 (Collinsella aerofaciens, UniProt A4ECA9). The note with it: cited from earlier work.
Data set [3] concerns the target T1, Collinsella aerofaciens 7β-HSDH mutant [R64E], with His tag, SEQ ID NO:4 (Collinsella aerofaciens, UniProt A4ECA9, R64E).
T1 sequence (A4ECA9 with tags, fused parts or gaps R64E): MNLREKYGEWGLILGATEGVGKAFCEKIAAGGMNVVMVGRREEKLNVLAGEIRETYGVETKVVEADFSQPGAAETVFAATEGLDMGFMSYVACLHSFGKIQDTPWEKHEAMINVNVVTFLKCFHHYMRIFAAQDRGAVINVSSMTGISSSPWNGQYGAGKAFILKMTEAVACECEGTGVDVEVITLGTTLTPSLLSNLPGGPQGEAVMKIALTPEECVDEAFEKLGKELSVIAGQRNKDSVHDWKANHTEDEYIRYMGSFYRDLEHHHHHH
The data set is described as follows: Michaelis-Menten kinetics, purified 7β-HSDH [R64E]. The note with it: in comparison with the wild type.

Data set [4] deals with T2, Collinsella aerofaciens 7β-HSDH mutant [G39S], with His tag, SEQ ID NO:5 (Collinsella aerofaciens, UniProt A4ECA9, G39S).
T2 sequence (A4ECA9 with tags, fused parts or gaps G39S): T1 sequence (A4ECA9 with tags, fused parts or gaps R64E) with G39S, E64R
Kind of data set: Michaelis-Menten kinetics, purified 7β-HSDH [G39S]. The note with it: in comparison with the wild type.

The target in data set [5] is T3, Collinsella aerofaciens 7β-HSDH dual mutant [G39S/R64E], with His tag, SEQ ID NO:6 (Collinsella aerofaciens, UniProt A4ECA9, G39S/R64E).
T3 sequence (A4ECA9 with tags, fused parts or gaps G39S/R64E): T1 sequence (A4ECA9 with tags, fused parts or gaps R64E) with G39S
The data set is described as follows: Michaelis-Menten kinetics, purified 7β-HSDH [G39S/R64E].

In data set [6] the test system is Collinsella aerofaciens DSM 3979 (ATCC 25986) 7β-HSDH, wild type, SEQ ID NO:2. The note with it: cited from earlier work.
Substrate in data set [7]: C[C@H](CCC(=O)O)[C@H]1CC[C@H]2[C@@H]3C(=O)C[C@@H]4CC(=O)CC[C@]4(C)[C@H]3CC(=O)[C@]12C
Kind of data set: cells, lysate or membranes named. The note with it: other: purified enzyme, 340 nm, 50 mM KPi pH 8.0, substrate DHCA / cofactor NADPH.

Substrate in data set [8]: NC(=O)C1=CN([C@@H]2O[C@H](COP(=O)(O)OP(=O)(O)OC[C@H]3O[C@@H](n4cnc5c(N)ncnc54)[C@H](OP(=O)(O)O)[C@@H]3O)[C@@H](O)[C@H]2O)C=CC1
Kind of data set: cells, lysate or membranes named. To be noted: other: purified enzyme, 340 nm, 50 mM KPi pH 8.0, substrate DHCA / cofactor NADPH.

Data set [9] can be described thus: Photometric activity determination of 7β-HSDH and mutants (decrease in absorbance at 340 nm, DHCA reduction with NADPH). It is filed as biochemical. The protocol:
The activity of the 7β-HSDH and of the mutants was determined using a photometric assay, where the decrease in absorbance was measured at 340 nm over a period of 30 seconds.
The expression [R64E] in the first column of the table means that the arginine (R) in position 64 of the protein sequence had been replaced by glutamic acid (E) in the mutant in question. The respective amino acid is abbreviated using the international one-letter code. Analogously, [R64D] means that an aspartic acid has been introduced at this position.

The nature of data set [10]: Cofactor specificity of 7β-HSDH types (compilation of improvements). It is filed as biochemical.
Substrate in data set [11]: C[C@H](CCC(=O)O)[C@H]1CC[C@H]2[C@@H]3C(=O)C[C@@H]4CC(=O)CC[C@]4(C)[C@H]3CC(=O)[C@]12C
The data set is described as follows: purified protein, by the assay type. The note with it: other: purified enzyme, 340 nm, 50 mM KPi pH 8.0, substrate DHCA / cofactor NADPH.

Substrate in data set [12]: NC(=O)C1=CN([C@@H]2O[C@H](COP(=O)(O)OP(=O)(O)OC[C@H]3O[C@@H](n4cnc5c(N)ncnc54)[C@H](OP(=O)(O)O)[C@@H]3O)[C@@H](O)[C@H]2O)C=CC1
Kind of data set: purified protein, by the assay type. To be noted: other: purified enzyme, 340 nm, 50 mM KPi pH 8.0, substrate DHCA / cofactor NADPH.

The mark [13] stands for this setting: Table 4, variants modified at position 64, 10 mM DHCA, NADPH, KPi pH 8.0.
Where [14] appears, read: Table 10, dual mutant versus wild type.
Where [15] appears, read: Table 9, variants modified at position 17.

Positions count from the first letter of the chain named. Names may count otherwise.

7β-HSDH obtainable from Collinsella aerofaciens DSM 3979, sequence (A4ECA9 whole entry): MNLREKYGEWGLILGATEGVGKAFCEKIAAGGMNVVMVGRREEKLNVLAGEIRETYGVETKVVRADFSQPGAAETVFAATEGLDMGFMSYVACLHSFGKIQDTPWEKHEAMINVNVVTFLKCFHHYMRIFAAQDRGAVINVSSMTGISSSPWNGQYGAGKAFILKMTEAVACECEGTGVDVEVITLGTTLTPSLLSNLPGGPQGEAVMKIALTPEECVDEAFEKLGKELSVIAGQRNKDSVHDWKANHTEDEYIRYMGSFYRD
Collinsella aerofaciens 7β-HSDH mutant [T17F], sequence (A4ECA9 1-263 with tags or gaps T17F): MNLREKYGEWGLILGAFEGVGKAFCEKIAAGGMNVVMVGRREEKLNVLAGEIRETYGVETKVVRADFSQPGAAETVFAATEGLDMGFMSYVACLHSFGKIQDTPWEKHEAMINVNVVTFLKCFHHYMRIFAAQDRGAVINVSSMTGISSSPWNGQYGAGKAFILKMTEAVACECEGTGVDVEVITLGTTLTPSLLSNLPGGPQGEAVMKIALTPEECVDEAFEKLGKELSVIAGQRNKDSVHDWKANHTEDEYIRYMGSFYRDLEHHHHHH

Consider `C[C@H](CCC(=O)O)[C@H]1CC[C@H]2[C@@H]3C(=O)C[C@@H]4CC(=O)CC[C@]4(C)[C@H]3CC(=O)[C@]12C` [DHCA, dehydrocholic acid], for which the “Vmax (DHCA), improvement” value is “+5-fold better” in data set [1], “+5-fold better” in data set [3], “+6-fold better” in [4] and “+7-fold better” in data set [5] (in comparison with the wild type). Also, the kcat in data set [2] was 875.35. Further, the “Substrate inhibition Ki” value is given as “+reduced” in [3] (in words); “+reduced” in data set [4] (in words); “++eliminated” in data set [5] (in words, in comparison with the wild type). The substrate inhibition result in [5] (in words, course of kinetics in FIG. 6) is “no longer demonstrates a substrate inhibition”.
Regarding `NC(=O)c1ccc[n+]([C@@H]2O[C@H](COP(=O)([O-])OP(=O)(O)OC[C@H]3O[C@@H](n4cnc5c(N)ncnc54)[C@H](OP(=O)(O)O)[C@@H]3O)[C@@H](O)[C@H]2O)c1` [NADP^+], in data set [2], the Vmax was 30.58 U/mg Protein and the kcat was 944.95. The kcat in [6] was 944.95.

B1: Collinsella aerofaciens 7β-HSDH mutant [R64E], with His tag, SEQ ID NO:4 (Collinsella aerofaciens ATCC 25986; R64E) (protein)
chain: T1 sequence (A4ECA9 with tags, fused parts or gaps R64E)
The term Km denotes the substrate concentration at which the rate is half of its maximum. Consider B1, for which, in [7], the Michaelis constant (Km) came to 81.01 ± 18.9 µM and the Vmax came out at 41.6 µmol/min/mg. Also, in [8], the Km came out at 45.48 ± 3.5 µM and the Vmax turned out to be 60.3 µmol/min/mg.

B2: 7β-HSDH [R64E]: 7β-HSDH mutant, arginine (R) in position 64 replaced by glutamic acid (E); His tag, SEQ ID NO:4 (protein)
chain: T1 sequence (A4ECA9 with tags, fused parts or gaps R64E)
modifications: His tag; 7-beta-HSDH R64E Mutant
In [9] (setting [13]), B2 gave a Specific activity of 60.2 U/mg and a Volumetric activity of 892.7 U/ml. In addition, the “activity compared with the wild-type enzyme” value in [9] (qualitative statement) is reported as “increase in the specific activity”. The Cofactor specificity entry in [10] was “NADPH”.

B3: 7β-HSDH [G39S]: 7β-HSDH mutant which contains serine instead of glycine at position 39; His tag, SEQ ID NO:5 (protein)
chain: T1 sequence (A4ECA9 with tags, fused parts or gaps R64E) with G39S, E64R
modifications: His tag; 7-beta-HSDH G39S Mutant
B3 displayed a Volumetric activity in data set [9] (text of example 3, position 39) of 735 U/ml. This molecule also registered a specific enzymatic activity in data set [9] (text of example 3, position 39, per mg protein) of 52.9 U/mg. Also, the Cofactor specificity result in data set [10] is “NADPH”.

B4: Collinsella aerofaciens 7β-HSDH (WT), with C-terminal His tag, SEQ ID NO:3 (Collinsella aerofaciens ATCC 25986) (protein)
chain: T1 sequence (A4ECA9 with tags, fused parts or gaps R64E) with E64R
Regarding B4, in data set [11], the Km was 20.5 ± 2.9 µM and the Vmax was found to be 8.7 µmol/min/mg. In [12], the Km was found to be 15.2 ± 2.2 µM and the Vmax was 8.8 µmol/min/mg.

B5: Collinsella aerofaciens 7β-HSDH mutant [G39S], with His tag, SEQ ID NO:5 (Collinsella aerofaciens ATCC 25986; G39S) (protein)
chain: T1 sequence (A4ECA9 with tags, fused parts or gaps R64E) with G39S, E64R
With B5, in [7], the Km was found to be 352.4 ± 42.7 µM and the Vmax was 52 µmol/min/mg. Moreover, in data set [8], the Michaelis-Menten constant (Km) came to 34.5 ± 6.6 µM and the Vmax was 48.8 µmol/min/mg.

B6: Collinsella aerofaciens 7β-HSDH dual mutant [G39S/R64E], with His tag, SEQ ID NO:6 (Collinsella aerofaciens ATCC 25986; G39S/R64E) (protein)
chain: T1 sequence (A4ECA9 with tags, fused parts or gaps R64E) with G39S
For the molecule B6, the Michaelis-Menten constant (Km) in [7] is 349.3 ± 5.23 µM; in data set [8], 76.6 ± 15.9 µM. Besides, the Vmax came out at 54.3 µmol/min/mg in data set [7] and 75.5 µmol/min/mg in data set [8].

B7: 7β-HSDH [G39S/R64E]: 7β-HSDH dual mutant, positions 39 ([G39S]) and 64 ([R64E]) modified at the same time; His tag, SEQ ID NO:6 (protein)
chain: T1 sequence (A4ECA9 with tags, fused parts or gaps R64E) with G39S, E64R
modifications: His tag; 7-beta-HSDH G39S/R64E Mutant
In data set [9] (setting [14]), B7 yielded a Specific activity of 57.5 U/mg and a Volumetric activity of 1115.0 U/ml. For the same molecule, the Cofactor specificity entry in [10] is “NADPH”.

B8: 7β-HSDH [T17F]: 7β-HSDH mutant, threonine at position 17 replaced by F (protein, UniProt A4ECA9 1-263, looked up, variant T17F)
7beta-hydroxysteroid …: MNLREKYGEWGLILGAFEGVGKAFCEKIAAGGMNVVMVGRREEKLNVLAGEIRETYGVETKVVRADFSQPGAAETVFAATEGLDMGFMSYVACLHSFGKIQDTPWEKHEAMINVNVVTFLKCFHHYMRIFAAQDRGAVINVSSMTGISSSPWNGQYGAGKAFILKMTEAVACECEGTGVDVEVITLGTTLTPSLLSNLPGGPQGEAVMKIALTPEECVDEAFEKLGKELSVIAGQRNKDSVHDWKANHTEDEYIRYMGSFYRD
In [9] (setting [15]), B8 gave a Specific activity of 46.1 U/mg and a Volumetric activity of 645.2 U/ml. For the same molecule, the Cofactor specificity result in data set [10] was “NADPH/low”.

The record behind these values is US10358672B2, “7-β-hydroxysteroid dehydrogenase mutants and process for the preparation of ursodeoxycholic acid” (Pharmazell GmbH, priority 2014, dated 2019).
